Results on two molecules are retold here after patent US7556927.

The target of test [1] is copper-induced oxidized low density lipoprotein (Cu-OxLDL) (UniProt P04114). The test is described as follows: cell-based or functional assay.
Test [2] has the same target. The test is described as follows: competition: ^125I-Cu-OxLDL binding to mouse peritoneal macrophages at 4 C, IK17 as competitor.
The target in test [3] is malondialdehyde low density lipoprotein (MDA-LDL) (UniProt P04114). Briefly: direct binding and competition assays with affinity purified Fab; method of the affinity value not stated.
The target of test [4] is copper-induced oxidized low density lipoprotein (Cu-OxLDL) (UniProt P04114). The test is described as follows: chemiluminescent ELISA, against Fab IK17 as reference.
Test [5] has as its target malondialdehyde low density lipoprotein (MDA-LDL) (UniProt P04114). Described as above.

B1: IK17 human monoclonal IgG Fab (Fab, V domains shown)
VH: EVQLLESGGDLVQPGGSLRLSCIVSGSTFSNYAMSWVRQAPGKGLEWVSAISGTGRSTNYADSVKGRFTISRDNSKDTLYLEMNSLRAEDTATYYCTRTPRIDFWNIANRHFDYWGQGTRVTVSS
VL: VLTQSPATLSLSPGERVTLSCRASQSVSSSLAWYQQKPGQAPRLLIYDASNRATGVPARFSGSGSGTDFTLTISGLEPEDFAVYYCQQRYNWPPKYTFGQGTKLEIRR
By Kd is commonly meant the equilibrium constant for the complex coming apart. High values mean lower affinity, low ones higher affinity. The molecule B1 registered a degradation of ^125I-Cu-OxLDL by macrophages (TCA-soluble ^125I in medium), % inhibition in test [1] of 50 to 65%. Also, in test [2], the % inhibition of binding of ^125I-Cu-OxLDL to macrophages was in the range of 70 to 85%. Moreover, in test [3], the Kd was determined as 37 nM.

B2: scFv IK17 (scFv, part only; not given: linker and His tag, not shown: small tags and cut ends)
scFv, part: MAEVQLLESGGDLVQPGGSLRLSCIVSGSTFSNYAMSWVRQAPGKGLEWVSAISGTGRSTNYADSVKGRFTISRDNSKDTLYLEMNSLRAEDTATYYCTRTPRIDFWNIANRHFDYWGQGTRVTVSSASTKGPSVFPLAPSSKSTSGGTAALGCLVRDYFPEPVTVSWNSGALTSGVHTFPAVLQSSGLYSLSSVVTVPSSVLTQSPATLSLSPGERVTLSCRASQSVSSSLAWYQQKPGQAPRLLIYDASNRATGVPARFSGSGSGTDFTLTISGLEPEDFAVYYCQQRYNWPPKYTFGQGTKLEIRRTVAAPSVFIFPPSDEQLKSGTASVVCLLNNFYPREAKVQWKVG
With B2, the fold greater binding activity than parent Fab in test [4] and in test [5] was 50 to 500 fold in each case.
